This note sets out measurements from PMC6814707 (Communications Biology, 2019).

For assay [1], the target named is recombinant human PD-1 protein (residues 21-167) (human) (UniProt Q15116). Description: ELISA; blocking: plates coated with 0.5 ug/mL PD-1 (21-167); antibody from 3 ug/mL, 1.5-fold dilutions, 37 °C 120 min; then 1 ug/mL PD-L1-mFc, detected with HRP-anti-mouse Fc.
Assay [2] has as its target T1, human PD-1 extracellular domain (residues 21-167) (Homo sapiens, UniProt Q15116, N-linked glycans seen at N49, N58 and N116 (N58: two N-acetylglucosamines, one fucose and two mannoses; N49 and N116: one N-acetylglucosamine modelled); N74 ambiguous).
T1 construct: Construct used for the complex with MW11-h317 Fab and its crystal structure; also called hPD-1; Programmed cell death protein 1; source: CHO cells, electrotransfected; purified from supernatant by a nivolumab-coupled resin
Description: crystal structure; PD-1 (21-167) and MW11-h317 Fab mixed 1:2, complex purified on Superdex 200; crystals at 16 °C in 0.1 M Bis-Tris pH 6.5, 28% PEG monomethyl ether 2000; 2.9 Å; two complexes per asymmetric unit. Particulars: both partners purified.

recombinant human PD-1 protein (residues 21-167) (human), sequence (Q15116 21-167): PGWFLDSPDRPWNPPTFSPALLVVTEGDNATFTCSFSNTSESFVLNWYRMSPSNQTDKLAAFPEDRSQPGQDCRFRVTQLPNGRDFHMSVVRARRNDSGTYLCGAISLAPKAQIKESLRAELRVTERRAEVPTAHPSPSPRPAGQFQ
T1 sequence (Q15116 21-167): as above

B1: MW11-h317 (humanized anti-PD-1 monoclonal antibody) (antibody, V domains shown)
VH: EVQLVESGGGLVKPGGSLRLSCAASGFTFSSYDMSWVRQAPGKGLEWVATISGGGSYTYYPDSVKGRFTISRDNAKNSLYLQMNSLRAEDTAVYYCASPDSSGVAYWGQGTLVTVSS
VL: DIVMTQSPLSLPVTPGEPASITCKASQDVETVVAWYLQKPGQSPRLLIYWASTRHTGVPDRFSGSGSGTDFTLKISRVEAEDVGVYYCQQYSRYPWTFGQGTKLEIK
In general, IC50 refers to the concentration at which inhibition is half-maximal. On to B1, for which, in assay [1], the IC50 was determined as 1.4 nM.

B2: MW11-h317 Fab (Fab, V domains shown)
VH: EVQLVESGGGLVKPGGSLRLSCAASGFTFSSYDMSWVRQAPGKGLEWVATISGGGSYTYYPDSVKGRFTISRDNAKNSLYLQMNSLRAEDTAVYYCASPDSSGVAYWGQGTLVTVSS
VL: DIVMTQSPLSLPVTPGEPASITCKASQDVETVVAWYLQKPGQSPRLLIYWASTRHTGVPDRFSGSGSGTDFTLKISRVEAEDVGVYYCQQYSRYPWTFGQGTKLEIK
notes: heavy chain of the Fab in the structure deposited here (PDB 6JJP); light chain of the Fab in the structure deposited here (PDB 6JJP); The methods speak of plasmids encoding VL and VH; also called MW11-h317 Fab fragment; source: HEK 293, co-transfected with two plasmids; purified from supernatant (Protein G, HiTrap Capto S)
The term stoichiometry N denotes the number of molecules, sites or subunits per partner or assembly. Regarding B2, the “stoichiometry N” value in assay [2] was found to be 1.
